In patent US4829052A, “Serine protease inhibitors” (Monsanto Company, priority 1987, dated 1989):
“Also recorded” adds a separate entry of the source.

Columns and labels:
bovine trypsin [1] = target: T1, bovine trypsin (Bos taurus, UniProt P00760); assay: Trypsin assay (spectrophotometric, N-Benzoyl-L-arginine p-nitroanilide substrate); format: biochemical; details: inhibitor/protease ratio between about 10/1 and 50/1
T1 sequence (P00760 24-246): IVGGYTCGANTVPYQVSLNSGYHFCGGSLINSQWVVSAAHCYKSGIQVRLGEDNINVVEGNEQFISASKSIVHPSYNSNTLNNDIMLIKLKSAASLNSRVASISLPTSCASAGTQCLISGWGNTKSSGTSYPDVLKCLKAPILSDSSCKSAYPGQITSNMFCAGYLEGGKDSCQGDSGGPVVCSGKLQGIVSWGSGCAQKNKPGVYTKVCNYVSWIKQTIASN
Experimental: (§1) The inhibitory activity of the polypeptides of the present invention can be easily assayed using in vitro assays. In these types of spectrophotometric assays the activity of the serine protease is measured toward an appropriate p-nitroanilide substrate in the presence and absence of the peptide inhibitor. The enzyme catalyzed hydrolysis of the peptide p-nitroanilide substrate produces p-nitroanaline which results in an increase in absorbance which is monitored in the range of 405 to 410 nm. The rate of increase in absorbance is a measure of the enzymatic activity and the decrease in this rate relative to a suitable control is used to ascertain inhibition. The general assay procedure and details of the particular assays employed in the examples are provided in the Appendix following the examples. It is also possible to test the polypeptides in a functionally oriented assay that emulates in vivo conditions. Such an inhibition assay for elastase is also described in the Appendix.
(§2) Generalized Protocol Spectrophotometric Assays:
(§3) (1) Pipette 100 μl of enzyme solution into a disposable polystyrene cuvette (1 cm optical path length).
(§4) (2) Add (1900-X) μl of bufferto the cuvette, where X is the volume of test solution in microliters that is added in the next step.
(§5) Add X μl of test solution to the cuvette, where X ranges from 0 μl for the control to a maximum of about 500 μl. Incubate the solution for a period of 1 to 5 minutes at ambient temperature.
(§6) (4) Add 100 μl of substrate solution to the cuvette. Mix the contents by covering the cuvette with a piece of paraffin film and repeatedly inverting for a period of 5 to 15 seconds.
(§7) (5) Record the change in absorbance for about 5 minutes at either 405 or 410 nm, depending on the assay, with a spectrophotometer equipped with a suitable recording device.
(§8) The percent inhibition is calculated from the formula [formula] where (ΔA/min) is the initial rate of absorbance change.
(§9) (7) For more accurate quantitative determinations temperature control of the cuvette holders and the reagent solutions can be instituted.
(§10) (8) The test solution can be crude oxidized peptide prepared as described above, fractions from a chromatographic separation or purified polypeptides.
(A) Buffer Solution - Triethanolamine buffer consisting of 200 mM triethanolamine, 20 mM CaCl2, pH 7.8
(B) Substrate solution - Dissolve 50 mg of N-Benzoyl-L-arginine p-nitroanilide in 50 ml of water. Sonicate for 5 to 10 minutes to completely dissolve the solid material.
(C) Enzyme solution - Dissolve 1 mg of bovine trypsin in 10 ml of 0.001N HCl stored on ice during the assay.
(§11) (D) Test Solution - See general protocol, number 8.
(§12) Procedure: Use the above solutions in the general protocol described above.

Human Sputum Elastase = target: T2, Human Sputum Elastase (Homo sapiens, UniProt P08246); assay: Elastase assay (spectrophotometric, p-nitroanilide substrate); format: biochemical; details: for Inhibitory Activity Elastase: inhibitor/protease ratio between about 10/1 and 50/1; for inhibition of human elastase (in words): text discussion of Table III
T2 construct: Human Sputum Elastase, product No. SE-563 EPC, Inc., Pacific, Mo; USA, Lot 85701; purchased EPC, Inc., Pacific, Mo; USA SE-563; host or cells: human sputum
T2 sequence (P08246 30-267): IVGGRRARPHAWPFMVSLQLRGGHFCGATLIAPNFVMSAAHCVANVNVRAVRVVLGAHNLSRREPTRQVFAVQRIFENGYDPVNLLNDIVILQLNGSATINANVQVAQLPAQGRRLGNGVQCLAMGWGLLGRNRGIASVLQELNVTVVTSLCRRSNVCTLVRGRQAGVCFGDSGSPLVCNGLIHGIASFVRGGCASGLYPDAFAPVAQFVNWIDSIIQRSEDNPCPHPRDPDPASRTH
Experimental: as §1, §2, §3, §4, §5, §6, §7, §8, §9, §10
(A) Buffer Solution - Tris-NaCl buffer consisting of 0.1M Tris-HCl pH 7.5 at 25° C. containing 0.5M NaCl and 0.01% (w/v) NaNs.
(B) Substrate Solution - Dissolve 45.5 mg of N-succinyl-L-alanyl-L-alanyl-L-alanine p-nitroanilide in 1 ml of 1-methyl-2-pyrrolidinone. Add 32 ml of Tris-NaCl buffer.
(C) Enzyme Solution - Human Sputum Elastase, product No. SE-563 EPC, Inc., Pacific, Mo. USA, Lot 85701. Dissolve 1 mg in 1 ml of Tris-NaCl buffer. Store on ice or at 4° C.
as §11, §12
(1) Buffer Solution - Tris-NaCl buffer -see Method 1.
(2) Substrate Solution - Dissolve 50 mg of 3-carbomethoxypropionyl-L-alanyl-L-alanyl-L-[…]-L-valine p-nitroanilidein 1 ml of 1-methyl-2-pyrrolidinone. Add 32 ml of Tris-NaCl buffer.
(3) Enzyme Solution - Human sputum elastase, product No. SE-563, EPC, inc. Pacific, Mo. USA, Lot 85071. Prepare a sample at a concentration of 0.01 mg per ml of Tris-NaCl buffer. Store on ice.
(4) Test Solution - general protocol, number 8.
Procedure: Use the above solutions in the general protocol.
(1) Porcine pancreatic elastase may be substituted for human elastase when it is desired to test for an inhibitor of the former.
(2) The activity of an elastase preparation can be calculated as [formula]
(3) The Tris-NaCl buffer also can be pH 8.0 with 0.03% sodium azide. Results should be compared at a single pH.

Human Sputum Cathepsin G [2] = target: T3, Human Sputum Cathepsin G (Homo sapiens, UniProt P08311); assay: Cathepsin G assay (spectrophotometric, p-nitroanilide substrate); format: biochemical; details: inhibitor/protease ratio between about 10/1 and 50/1
T3 construct: Human Sputum Cathepsin G (Product No. SG-45, EPC, Inc., Pacific, Mo.); purchased EPC, Inc., Pacific, Mo; SG-45; host or cells: human sputum
T3 sequence (P08311 21-255): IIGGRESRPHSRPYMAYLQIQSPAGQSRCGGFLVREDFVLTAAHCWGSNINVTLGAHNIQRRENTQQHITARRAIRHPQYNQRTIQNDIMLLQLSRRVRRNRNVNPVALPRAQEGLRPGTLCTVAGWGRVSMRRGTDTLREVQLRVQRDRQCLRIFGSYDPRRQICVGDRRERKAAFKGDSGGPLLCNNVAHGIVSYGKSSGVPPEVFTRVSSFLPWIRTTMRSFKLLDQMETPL
Experimental: as §1, §2, §3, §4, §5, §6, §7, §8, §9, §10
(A) Buffer Solution - Tris-NaCl buffer consisting of 0.1M Tris-HCl, pH 8.0 containing 0.5M NaCl and 0.03% sodium azide.
(B) Substrate solution - Dissolve 50 mg of N-succinyl-L-alanyl-L-alanyl-L-prolyl-L-phenylalanine p-nitroanilide in 1 ml of 1-methyl-2-pyrrolidinone and dilute to 50 ml with Tris-NaCl buffer.
(C) Enzyme Solution - Human Sputum Cathepsin G (Product No. SG-45, EPC, Inc., Pacific, Mo.). Dissolve 1 mg of protein per 1 ml of Tris-NaCl buffer. Store on ice or at 4° C.
(D) Test Solutions - See the general protocol, number 8.
Procedure: Use the above solution in the general protocol described above. […]

bovine chymotrypsin [3] = target: T4, bovine chymotrypsin (Bos taurus, UniProt P00766); assay: Chymotrypsin assay (spectrophotometric, p-nitroanilide substrate); format: biochemical; details: inhibitor/protease ratio between about 10/1 and 50/1
Experimental: as §1, §2, §3, §4, §5, §6, §7, §8, §9, §10
(A) Buffer solution - triethanolamine buffer- See trypsin assay.
(B) Substrate Solution - Dissolve 25 mg of 3-carbomethoxypropionyl-L-arginyl-L-prolyl-L-tyrosine p-nitroanilide (Product No. S-2586, KabiVitrum AB, Stockholm, Sweden) in 23.6 ml of water
(C) Enzyme solution - Dissolve 1 mg of bovine chymotrypsin in 4 ml of 0.001N HCl. Prepare the final dilution by combining 0.1 ml of the stock chymotrypsin solution and 10 ml of 0.001N HCl. Store on ice or at 4° C.
Procedure: Use the above solutions in the general protocol
(2) See note 1 of the cathepsin G assay.
(3) 0.1M Tris-HCl, pH 7.8, 20 mM CaCl2, 0.05% triton X-100 can be substituted for the triethanolamine buffer.

bovine trypsin [4] = target: T1, bovine trypsin; details: stated for comparison, no test described; cited from earlier work
Human Sputum Cathepsin G [5] = target: T3, Human Sputum Cathepsin G; details: stated for comparison, no test described; cited from earlier work
bovine chymotrypsin [6] = target: T4, bovine chymotrypsin; details: stated for comparison, no test described; cited from earlier work

Substance | Inhibitory Activity Trypsin (bovine trypsin [1]) | Inhibitory Activity Elastase (Human Sputum Elastase) | Inhibitory Activity Cathepsin G (Human Sputum Cathepsin G [2]) | Inhibitory Activity Chymotrypsin (bovine chymotrypsin [3]) | inhibition of human elastase (in words) (Human Sputum Elastase) | inhibition of trypsin (in words) (bovine trypsin [4]) | inhibition of cathepsin G (in words) (Human Sputum Cathepsin G [5]) | inhibition of chymotrypsin (in words) (bovine chymotrypsin [6])
RVCPRILMKCKKDSDCLAECVCLEHGYC (RVCPRILMKCKKDSDCLAECVCLEHGYC) [Control, comparative control, reference compound] | ++ (Represents greater than 50% inhibition) | - (Represents less than 10% inhibition) | - (Represents less than 10% inhibition) | - (Represents less than 10% inhibition) |  |  |  | 
RVCPVALMKCKKDSDCLAECVCLEHGYCG (RVCPVALMKCKKDSDCLAECVCLEHGYCG) [Peptide 48] | - (Represents less than 10% inhibition) | + (Represents between 10% and 50% inhibition) | - (Represents less than 10% inhibition) | - (Represents less than 10% inhibition) | continue to be inhibitors of human elastase |  |  | 
RVCPVILLKCKKDSDCLAECVCLEHGYCG (RVCPVILLKCKKDSDCLAECVCLEHGYCG) [Peptide 45] | - (Represents less than 10% inhibition) | ++ (Represents greater than 50% inhibition) | - (Represents less than 10% inhibition) | - (Represents less than 10% inhibition) | continue to be inhibitors of human elastase |  |  | 
R V C P V I L Nle KCKKDSDCLAECVCLEHGYCG [Peptide 43] | - (Represents less than 10% inhibition) | ++ (Represents greater than 50% inhibition) | - (Represents less than 10% inhibition) | - (Represents less than 10% inhibition) |  |  |  | 
RVCPVSLMKCKKDSDCLAECVCLEHGYCG (RVCPVSLMKCKKDSDCLAECVCLEHGYCG) [Peptide 44] | - (Represents less than 10% inhibition) | ++ (Represents greater than 50% inhibition) | - (Represents less than 10% inhibition) | - (Represents less than 10% inhibition) |  |  |  | 
RVPCVALMKCKKDSDCLAECVCLEHGYCG (RVPCVALMKCKKDSDCLAECVCLEHGYCG) [Peptide 49] | - (Represents less than 10% inhibition) | + (Represents between 10% and 50% inhibition) | - (Represents less than 10% inhibition) | - (Represents less than 10% inhibition) | continue to be inhibitors of human elastase; also recorded: only marginal activity |  |  | 
RVPCVILMKLKKDSDCLAECVCLEHGYCG (RVPCVILMKLKKDSDCLAECVCLEHGYCG) [Peptide 50] | - (Represents less than 10% inhibition) | - (Represents less than 10% inhibition) | - (Represents less than 10% inhibition) | - (Represents less than 10% inhibition) | only marginal activity |  |  | 
α-1-Proteinase inhibitor |  |  |  |  |  | inhibits all of these enzymes | inhibits all of these enzymes | inhibits all of these enzymes
